Measured values reported in US20230374104A1 (SEATTLE CHILDREN S HOSPITAL DBA SEATTLE CHILDREN S RESEARCH …, published 2023).
Each block holds one molecule with its values, some of them ahead of it.

How the values were obtained:
soluble PD-L1 [1] = molecular target: soluble PD-L1 (UniProt Q9NZQ7); experiment: cell binding (H9 cells); printed as pg/ul
soluble PD-L1 [2] = molecular target: T1, soluble PD-L1 (UniProt Q9NZQ7 19-238, limits assumed); experiment: competitive binding assay: mixed H9 cells expressing PD1(WT):CD28 (cell trace violet positive) and PD1(A99L):CD28 (negative), incubated with soluble PD-L1 (0.02 pg/uL to 20 ng/ul) for 30 min, streptavidin-APC, flow cytometry
T1 construct: also called PD1-L1
Procedure: A competitive binding assay was performed to determine relative binding affinity between PD1 chimeric polypeptides, in particular PD1(WT):CD28 polypeptide, and the PD1(A99L):CD28 polypeptide.
A population of H9 cells containing PD1(WT):CD28 polypeptide were labeled with cell trace violet were mixed with a population of H9 cells containing PD1(A99L):CD28 polypeptide. The cells were then incubated with soluble PD-L1 (0.02 pg/uL to 20 ng/ul) for 30 min and then stained with streptavidin-APC. The two populations were separated out by flow analysis into cell trace violet positive (H9 cells containing PD1(WT):CD28 polypeptide) and cell trace violet negative (H9 cells containing PD1(A99L):CD28 polypeptide) populations. The populations were analyzed for APC positivity.

Chain of soluble PD-L1 (UniProt Q9NZQ7) (Q9NZQ7 19-238): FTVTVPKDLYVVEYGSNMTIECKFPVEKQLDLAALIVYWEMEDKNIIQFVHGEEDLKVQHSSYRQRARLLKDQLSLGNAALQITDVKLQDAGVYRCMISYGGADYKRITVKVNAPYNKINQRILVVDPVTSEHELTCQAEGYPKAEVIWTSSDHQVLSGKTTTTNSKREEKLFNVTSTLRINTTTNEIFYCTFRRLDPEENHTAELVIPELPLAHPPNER
T1 sequence (Q9NZQ7 19-238 limits assumed): as the sequence (Q9NZQ7 19-238) above

- Kd (soluble PD-L1 [1]): 0.0033 µg/mL
Molecule: PD1(A99L):CD28 polypeptide

- Kd (soluble PD-L1 [1]): 0.029 µg/mL
Molecule: PD1(WT):CD28 polypeptide

- fold binding affinity relative to PD1(WT):CD28 polypeptide (soluble PD-L1 [2]): ~9 fold
B1: PD1(A99L):CD28 polypeptide (receptor)
chain: LDSPDRPWNPPTFSPALLVVTEGDNATFTCSFSNTSESFVLNWYRMSPSNQTDKLAAFPEDRSQPGQDCRFRVTQLPNGRDFHMSVVRARRNDSGTYLCGAISLAPKLQIKESLRAELRVTERRAEVPTAHCPSPLFPGPSKPFWVLVVVGGVLACYSLLVTVAFIIFWVRSKRSRLLHSDYMNMTPRRPGPTRKHYQPYAPPRDFAAYRS
notes: Position 99 is not counted from the initiating Met of the encoded open reading frame, where the changed alanine appears to lie near position 132
